Experimental data taken from article PMC5397175, “Binding site density enables paralog-specific activity of SLM2 and Sam68 proteins in Neurexin2 AS4 splicing control”.
Residue numbers refer to the chain shown, from its start.

T1: SLM2 (T-STAR) STAR domain (UniProt O75525 1-183)
T1 sequence: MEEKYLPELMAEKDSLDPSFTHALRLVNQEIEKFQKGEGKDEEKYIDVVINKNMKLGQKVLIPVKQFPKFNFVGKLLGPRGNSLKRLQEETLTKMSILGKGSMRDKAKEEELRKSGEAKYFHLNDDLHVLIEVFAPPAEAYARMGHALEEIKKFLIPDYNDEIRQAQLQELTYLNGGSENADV

B1: Nrxn2 WT (ssRNA)
RNA: CCCAAUUAAUUAAUUAAUUAACUAACUAACUAACUUUAAAAACACGAUCUUAAA
B2: Nrxn2 mutant 7 (ssRNA)
RNA: B1 RNA with U27C, A28C, U31C, A32C, U35C, U36C

How the values were obtained:
[1] = target: T1, SLM2 (T-STAR) STAR domain; experiment: fluorescence polarization; FP buffer, salt, pH and temperature not given in the material; SD from three independent experiments; settings: protein: recombinant; chain copies: 2; label: 5' fluorescein
Sam68 STAR domain = Sam68 STAR domain (UniProt Q07666 97-283); experiment: as above; settings: protein: recombinant; chain copies: 2; label: 5' fluorescein
Sequence of Sam68 STAR domain (Q07666 97-283): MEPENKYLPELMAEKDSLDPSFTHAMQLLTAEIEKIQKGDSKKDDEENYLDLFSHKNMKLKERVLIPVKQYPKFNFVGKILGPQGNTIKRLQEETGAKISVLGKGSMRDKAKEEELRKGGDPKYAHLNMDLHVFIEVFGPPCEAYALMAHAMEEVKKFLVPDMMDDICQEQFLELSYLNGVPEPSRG

Binder	Kd [1]	Kd (Sam68 STAR domain)
B1	5.9 ± 0.9 µM	2.9 ± 0.3 µM
B2	3.9 ± 0.4 µM	3.4 ± 0.3 µM
